Results reported in US12264201B2, “Bispecific antibody targeting IL-1R1 and NLPR3” (University of Ulster, priority 2018, dated 2025).

Experiments:
THP1 cells [1] = test: Caspase-1 activation in THP1 cells (FAM-FLICA staining, confocal); assay type: cell-based
Procedure: THP1 cells, for FIG. 34, were cultured in 96-well plates at 100,000cells/200 ul complete media. PMA (100 ug/ml for 72 hours) was used to differentiated THP-1 cells into macrophages. Following 24 hours of rest, differentiated THP1 cells were stimulated with LPS (1 ug/ml) for 3 hours, treated with the IL-1R1/NLRP3 Ab (1 μg/ml) for 30 minutes, followed by ATP (5 mM) for 1 hour. Caspase-1 activation was assessed by staining cells with a non-cytotoxic Fluorescent Labelled Inhibitor of Caspase-1 (FAM-FLICA) and DAPI (nuclear stain). Cells were treated with LPS alone (negative control), LPS+ATP (positive control), mouse IgG2a (1 ug/ml, Ab control), or IL-1r/NLRP3 bi-specific Ab (1 ug/ml, experimental). Representative confocal images are shown for each group. Green=active caspae-1 and blue=Dapi/nuclear stain.
Internalization of Inflamab—see FIG. 35. THP1 cells, for FIG. 35, were cultured in 96-well plates at 100,000cells/200 ul complete media. Differentiation of THP1 cells was induced by PMA (100 ug/ml for 72 hours). Following 24 hours of rest, differentiated THP1 cells were stimulated with LPS (1 ug/ml) for 3 hours, treated with a pHrodo red labelled IL-1r/NLRP3 Ab (1 ug/ml) for 30 minutes, followed by ATP (5 mM) for 1 hour. The internalization of the Ab was tracked using a pHrodo red labelled bi-specific Ab that only fluoresces when internalized.

apoE−/− mice = test: Atherosclerosis: collar-induced carotid artery plaque formation, morphometry; assay type: in vivo
Excerpt: Female apoE−/− mice were fed a Western-type diet, containing 0.25% cholesterol and 15% cacao butter (SDS, Sussex, UK) starting two weeks prior to surgery and throughout the experiment. After 2 weeks of diet feeding, carotid artery plaque formation was induced by perivascular collar placement in these mice as described previously (von der Thusen et al, Circulation. 2001; 103(8):1164-1170). […] Through the experiment, mice were weighed weekly and blood samples were obtained via the tail vein. Total cholesterol levels were determined in the serum using enzymatic colorimetric procedures (Roche/Hitachi, Mannheim, Germany). Precipath (Roche/Hitachi) was used as an internal standard. Fasting glucose levels were determined in mice at 2 weeks after starting the treatment with InflaMab and were measured with an Accu-Check glucometer (Roche Diagnostics, Almere, The Netherlands). For lipid profiling, serum samples pooled from 3 mice were used (n=3 samples per group) which were diluted 6 times, and fractionation of plasma lipoproteins was performed using an AKTA-FPLC. In each fraction, the total cholesterol levels were determined by incubation with cholesterol CHOD-PAP Reagent (Roche, Woerden, The Netherlands). Absorbance was measured at 492 nm.
After 4 weeks of treatment, the mice were anesthetized and in situ perfused, after which the carotid arteries were collected, frozen in OCT compound (TissueTek; Sakura Finetek, The Netherlands) and stored at −80° C. Transverse 10 μm cryosections were prepared on a Leica CM 3050S Cryostat (Leica Instruments) in a proximal direction for (immuno)histochemical analysis.
Cryosections were routinely stained with hematoxylin (Sigma-Aldrich, Zwijndrecht, The Netherlands) and eosin (Merck Diagnostica, Darmstadt, Germany). Morphometric analysis (Leica Qwin image analysis software) was performed on hematoxylin-eosin stained sections of the carotid arteries. For each carotid, lesion size was quantified every 100 μm, from the first appearance of the lesion proximal to the collar up to complete disappearance of the lesion from the artery. The number of sections analyzed ranged from 5 to 15 sections per mouse, from which average plaque size and plaque volume were calculated. The section with the largest plaque size was annotated as the plaque with maximum stenosis. For the quantification of lesion content in the carotid artery, four consecutive cross-sections containing the largest lesions were used. To determine lipid content, sections were stained with Oil-Red-O (Sigma-Aldrich). Macrophage content of the lesions was assessed using a rat monoclonal MOMA-2 antibody (Serotec, Kidlington, Oxford, UK). Collagen was visualized using a Sirius Red staining (Sigma-Aldrich). Mast cells and neutrophils were visualized by staining of cryosections with naphthol AS-D chloroacetate esterase (Sigma-Aldrich). The number of mast cells and neutrophils was assessed manually in two consecutive cross-sections containing the largest lesions. MOMA-2 and collagen positive areas were quantified by Leica Qwin image analysis software using a Leica DM-RE microscope (Leica Microsystems Inc., Wetzlar, Germany). All morphometric analyses were performed by a blinded operator (T.v.d.H.).
Atherosclerosis study: InflaMab reduces plaque size in an in vivo apoe−/− model of atherosclerosis—see FIG. 38. After 2 weeks of western type diet feeding in female apoE−/− mice, carotid artery plaque formation was induced by perivascular collar placement. […] Carotid arteries then collected for cyrosections. For each carotid, lesion size was quantitated every 80 μm, from the first appearance of the lesion proximal to the collar up to complete disappearance of the lesion from the artery.

THP1 cells [2] = test: IL-1β release from LPS/ATP-stimulated differentiated THP1 cells (ELISA); assay type: cell-based; details: PMA-differentiated THP1; LPS 1 μg/ml 3 h, Ab 30 min (0.0025-2.5 ng/ml or 1 nM), ATP 5 mM 1 h; supernatant ELISA; FIG. 33
Procedure: THP1 cells, for FIGS. 33a and b, were cultured in 96-well plates at 100,000 cells/200 μl complete media. PMA (100 μg/ml for 72 hours) was used to differentiate THP-1 cells into macrophages. Following 24 hours of rest, differentiated THP1 cells were stimulated with LPS (1 μg/ml) for 3 hours, treated with MCC950 (1 μM) or the IL-1R1/NLRP3 Ab in a dose dependent fashion from 0.0025 ng/ml to 2.5 ng/ml for FIG. 33a or with IL-1R1/NLRP3 Ab (1 nM) for FIG. 33b or with IgG control antibody for 30 minutes, followed by ATP (5 mM) for 1 hour. IL-1β release was measured in the supernatant by ELISA.

B1: InflaMab: 210 kDa bispecific mouse antibody to IL-1R1 and NLRP3; light chain SEQ ID NO: 57, heavy chain with scFv SEQ ID NO: 59 (protein)
light: MVSSAQFLGLLLLCFQGTRCDIVMTQSPATLSVTPGDRVSLSCRASQSISDYLSWYQQRSHESPRLIIKYASQSISGIPSRFSGSGSGSDFTLSINSVEPEDVGVYYCQHGHSFPLTFGSGTKLELKRADAAPTVSIFPPSSEQLTSGGASVVCFLNNFYPKDINVKWKIDGSERQNGVLNSWTDQDSKDSTYSMSSTLTLTKDEYERHNSYTCEATHKTSTSPIVKSFNRNEC
heavy: MGWTLVFLFLLSVTAGVHSQIQLVQSGPELRKPGETVRISCKASGYPFTTAGLQWVQKMSGKGLKWIGWMNTQSEVPKYAEEFKGRIAFSLETAASTAYLQINNLKTEDTATYFCAKSVYFNWRYFDVWGAGTTVTVSSAKTTAPSVYPLAPVCGDTTGSSVTLGCLVKGYFPEPVTLTWNSGSLSSGVHTFPAVLQSDLYTLSSSVTVTSSTWPSQSITCNVAHPASSTKVDKKIEPRGPTIKPCPPCKCPAPNLLGGPSVFIFPPKIKDVLMISLSPIVTCVVVDVSEDDPDVQISWFVNNVEVHTAQTQTHREDYNSTLRVVSALPIQHQDWMSGKEFKCKVNNKDLPAPIERTISKPKGSVRAPQVYVLPPPEEEMTKKQVTLTCMVTDFMPEDIYVEWTNNGKTELNYKNTEPVLDSDGSYFMYSKLRVEKKNWVERNSYSCSVVHEGLHNHHTTKSFSRTPGKGSAGGSGGDSEVQLVESGGGLVKPGGSLKLSCAASGFTFSDYYMYWVRQTPEKRLEWVATISDGGTYTYYPDSVKGRFTISRDNAKNNLYLQMNSLKSEDTAMYYCARGWVSTMVKLLSSFPYWGQGTLVTVSAGGGGSGGGGSGGGGSQAVVTQESALTTSPGETVTLTCRSSTGAVTTSNYANWVQEKPDHLFTGLIGGTNNRAPGVPARFSGSLIGDKAALTITGAQTEDEAIYFCALWYSNYWVFGGGTKLTVLGQPK
caspase-1 activation (THP1 cells [1]; differentiated THP1, LPS 1 ug/ml 3 h, Ab 1 μg/ml 30 min, ATP 5 mM 1 h, FAM-FLICA, FIG. 34): prevents
caspase-1 activation in THP1 cells that have internalized the bi-specific Ab as compared to cells that did not (THP1 cells [1]; pHrodo red labelled Ab 1 ug/ml 30 min, LPS then ATP, confocal, FIG. 35B): significant reduction
reduction in lesion size (apoE−/− mice; FIG. 38, significant, versus control): −35%
Mouse weight (apoE−/− mice; InflaMab versus control groups): no difference
general white blood cell levels (hematology analysis) (apoE−/− mice; InflaMab versus control groups): no difference
% reduction of plaque size at site of maximal stenosis (apoE−/− mice; InflammAb average versus Control IgG average): 30.6164%
Average plaque size, group Average (apoE−/− mice; group average, 10 mice listed): 36604 μm^2
Lumen size at site of maximal stenosis, Average (apoE−/− mice; group average, 10 mice listed): 11415 μm^2
Media (size) at site of maximal stenosis, Average (apoE−/− mice; group average, 10 mice listed): 40997 μm^2
Plaque size at site of maximal stenosis, Average (apoE−/− mice; group average, 10 mice listed): 58881 μm^2
total vessel area at site of maximal stenosis, Average (apoE−/− mice; group average, 10 mice listed): 111293 μm^2
Lumen size (area of the artery still open for blood flow) compared to Control IgG (apoE−/− mice; in words): almost significantly larger
Total vessel area (plaque+media+lumen) compared to Control IgG (apoE−/− mice; in words): not different
media size (size of the medial smooth muscle layer) compared to Control IgG (apoE−/− mice; in words, Tables 5 and 6): no effect
lesion size, FIG. 38a (apoE−/− mice; versus control, in words): trend towards a reduction
IL-1β release (THP1 cells [2]): prevents
